# From patent publication US20190389910A1 (ORUM THERAPEUTICS, published 2019)
# Residue numbers refer to the chain shown, from its start.
# B1: 6#2-Ras03 (antibody, part only; not given: RT22 heavy chain, constant regions, V domains shown, not shown: another chain or arm of the molecule; a dimerising Fc or GST; large carriers; small tags and cut ends)
# VL: HVEFPCTRRGDLFVLCEGSMGSSSNDIQMTQSPSSLSASVGDRVTITCKSSQSLLNSRDGKNYLAWYQQKPGKAPKLLIYWASTRESGVPSRFSGSGSGTDFTLTISSLQPEDFATYFCQQYWYWMYTFGQGTKVEIK
# modifications: chain 1: disulfide bond Cys6-Cys16 closes the 6#2 cyclic peptide
# B2: 6#4-Ras03 (antibody, part only; not given: RT22 heavy chain, light constant, V domains shown, not shown: another chain or arm of the molecule; a dimerising Fc or GST)
# VL: ESFRPCQYRGDLFVLCFPSDMGSSSNDIQMTQSPSSLSASVGDRVTITCKSSQSLLNSRDGKNYLAWYQQKPGKAPKLLIYWASTRESGVPSRFSGSGSGTDFTLTISSLQPEDFATYFCQQYWYWMYTFGQGTKVEIK
# modifications: chain 1: disulfide bond Cys6-Cys16 closes the cyclic peptide
# B3: 6#6-Ras03 (antibody, part only; not given: RT22 heavy chain, light constant, V domains shown, not shown: another chain or arm of the molecule; a dimerising Fc or GST)
# VL: LGPLPCQTRGDLFSLCHYMGSSSNDIQMTQSPSSLSASVGDRVTITCKSSQSLLNSRDGKNYLAWYQQKPGKAPKLLIYWASTRESGVPSRFSGSGSGTDFTLTISSLQPEDFATYFCQQYWYWMYTFGQGTKVEIK
# modifications: chain 1: disulfide bond Cys6-Cys16 closes the cyclic peptide
# B4: 6#8-Ras03 (antibody, part only; not given: RT22 heavy chain, light constant, V domains shown, not shown: another chain or arm of the molecule; a dimerising Fc or GST)
# VL: B3 VL with L1F, G2P, P3N, L4N, P5Q, T8H, S14A, H17A, Y18D
# modifications: chain 1: disulfide bond Cys6-Cys16 closes the cyclic peptide
# B5: SFITGv6-Ras03 (antibody, part only; not given: RT22 heavy chain, constant regions, V domains shown, not shown: another chain or arm of the molecule; a dimerising Fc or GST; large carriers; small tags and cut ends)
# VL: GRCTFRGDLMQLCYPDMGSSSNDIQMTQSPSSLSASVGDRVTITCKSSQSLLNSRDGKNYLAWYQQKPGKAPKLLIYWASTRESGVPSRFSGSGSGTDFTLTISSLQPEDFATYFCQQYWYWMYTFGQGTKVEIK
# modifications: chain 1: disulfide bond Cys3-Cys13 closes the SFITGv6 cyclic peptide
# B6: in4-Ras03 (antibody, part only; not given: RT22 heavy chain, light constant, V domains shown, not shown: another chain or arm of the molecule; a dimerising Fc or GST)
# VL: DGVRQCRGDCFDGPLMGSSSNDIQMTQSPSSLSASVGDRVTITCKSSQSLLNSRDGKNYLAWYQQKPGKAPKLLIYWASTRESGVPSRFSGSGSGTDFTLTISSLQPEDFATYFCQQYWYWMYTFGQGTKVEIK
# modifications: chain 1: disulfide bond Cys6-Cys10 closes the in4 cyclic peptide
# B7: 5#1-Ras03 (antibody, part only; not given: RT22 heavy chain, constant regions, V domains shown, not shown: another chain or arm of the molecule; a dimerising Fc or GST; large carriers; small tags and cut ends)
# VL: LPSGACVVRGDTFQCVSVGMGSSSNDIQMTQSPSSLSASVGDRVTITCKSSQSLLNSRDGKNYLAWYQQKPGKAPKLLIYWASTRESGVPSRFSGSGSGTDFTLTISSLQPEDFATYFCQQYWYWMYTFGQGTKVEIK
# modifications: chain 1: disulfide bond Cys6-Cys15 closes the 5#1 cyclic peptide
# B8: epRas03 (4-8) (antibody, part only; not given: RT22 heavy chain, light constant, V domains shown, not shown: another chain or arm of the molecule; a dimerising Fc or GST)
# VL: RNLLCIGNLCWPMGSSSNDIQMTQSPSSLSASVGDRVTITCKSSQSLLNSRDGKNYLAWYQQKPGKAPKLLIYWASTRESGVPSRFSGSGSGTDFTLTISSLQPEDFATYFCQQYWYWMYTFGQGTKVEIK
# modifications: chain 1: disulfide bond Cys5-Cys10 closes the cyclic peptide
# B9: epRas03 (4-12) (antibody, part only; not given: RT22 heavy chain, light constant, V domains shown, not shown: another chain or arm of the molecule; a dimerising Fc or GST)
# VL: B8 VL with I6L, G7R, N8R, L9I
# modifications: chain 1: disulfide bond Cys5-Cys10 closes the cyclic peptide
# B10: epRas03 (4-13) (antibody, part only; not given: RT22 heavy chain, light constant, V domains shown, not shown: another chain or arm of the molecule; a dimerising Fc or GST)
# VL: B8 VL with L4Q, G7R, L9I, P12S
# modifications: chain 1: disulfide bond Cys5-Cys10 closes the cyclic peptide
# B11: epRas03 (4-27) (antibody, part only; not given: RT22 heavy chain, light constant, V domains shown, not shown: another chain or arm of the molecule; a dimerising Fc or GST)
# VL: B8 VL with N2H, L4W, I6L, N8R
# modifications: chain 1: disulfide bond Cys5-Cys10 closes the cyclic peptide
# B12: epRas03 (4-19) (antibody, part only; not given: RT22 heavy chain, light constant, V domains shown, not shown: another chain or arm of the molecule; a dimerising Fc or GST)
# VL: B8 VL with L4R, L9I, P12S
# modifications: chain 1: disulfide bond Cys5-Cys10 closes the cyclic peptide
# B13: epRas03 (4-14) (antibody, part only; not given: RT22 heavy chain, light constant, V domains shown, not shown: another chain or arm of the molecule; a dimerising Fc or GST)
# VL: B8 VL with L4H
# modifications: chain 1: disulfide bond Cys5-Cys10 closes the cyclic peptide
# B14: ep4-Ras03 (antibody, part only; not given: RT22 heavy chain, light constant, V domains shown, not shown: another chain or arm of the molecule; a dimerising Fc or GST)
# VL: B8 VL with R1E, N2H, L4H, I6L, N8S, P12S
# modifications: chain 1: disulfide bond Cys5-Cys10 closes the cyclic peptide
# B15: ep3-Ras03 (antibody, part only; not given: RT22 heavy chain, light constant, V domains shown, not shown: another chain or arm of the molecule; a dimerising Fc or GST)
# VL: B8 VL with R1E, L4Q, P12S
# modifications: chain 1: disulfide bond Cys5-Cys10 closes the cyclic peptide
# B16: ep6-Ras03 (antibody, part only; not given: RT22 heavy chain, light constant, V domains shown, not shown: another chain or arm of the molecule; a dimerising Fc or GST)
# VL: B8 VL with R1N, L4R, L9I, P12S
# modifications: chain 1: disulfide bond Cys5-Cys10 closes the Ep6 cyclic peptide
# B17: ep7-Ras03 (antibody, part only; not given: RT22 heavy chain, light constant, V domains shown, not shown: another chain or arm of the molecule; a dimerising Fc or GST)
# VL: B8 VL with R1D, L4R, L9I, P12S
# modifications: chain 1: disulfide bond Cys5-Cys10 closes the Ep7 cyclic peptide
# B18: 5#4-Ras03 (antibody, part only; not given: RT22 heavy chain, constant regions, V domains shown, not shown: another chain or arm of the molecule; a dimerising Fc or GST; large carriers; small tags and cut ends)
# VL: EHATNCTTRGDTFVVLCGLGMGSSSNDIQMTQSPSSLSASVGDRVTITCKSSQSLLNSRDGKNYLAWYQQKPGKAPKLLIYWASTRESGVPSRFSGSGSGTDFTLTISSLQPEDFATYFCQQYWYWMYTFGQGTKVEIK
# modifications: chain 1: disulfide bond Cys6-Cys17 closes the 5#4 cyclic peptide
# B19: 5#2-Ras03 (antibody, part only; not given: RT22 heavy chain, constant regions, V domains shown, not shown: another chain or arm of the molecule; a dimerising Fc or GST; large carriers; small tags and cut ends)
# VL: ASYNDCQSRGDTFCVADMGSSSNDIQMTQSPSSLSASVGDRVTITCKSSQSLLNSRDGKNYLAWYQQKPGKAPKLLIYWASTRESGVPSRFSGSGSGTDFTLTISSLQPEDFATYFCQQYWYWMYTFGQGTKVEIK
# modifications: chain 1: disulfide bond Cys6-Cys14 closes the 5#2 cyclic peptide
# B20: 5#3-Ras03 (antibody, part only; not given: RT22 heavy chain, constant regions, V domains shown, not shown: another chain or arm of the molecule; a dimerising Fc or GST; large carriers; small tags and cut ends)
# VL: SRDETCTPRGDTFAICMGSSSNDIQMTQSPSSLSASVGDRVTITCKSSQSLLNSRDGKNYLAWYQQKPGKAPKLLIYWASTRESGVPSRFSGSGSGTDFTLTISSLQPEDFATYFCQQYWYWMYTFGQGTKVEIK
# modifications: chain 1: disulfide bond Cys6-Cys16 closes the 5#3 cyclic peptide
# B21: TMab4-WYW (antibody, human IgG1, V domains shown)
# VH: EVQLVESGGGLVQPGGSLRLSCAASGYTFTSYVMHWVRQAPGKGLEWVSAINPYNDGNYYADSVKGRFTISRDNSRKTLYLQMNSLRAEDTAVYYCARGAYKRGYAMDYWGQGTTVTVSS
# VL: DLVMTQSPSSLSASVGDRVTITCKSSQSLFNSRTRKNYLAWYQQKPGKAPKLLIYWASTRESGVPSRFSGSGSGTDFTLTISSLQPEDFATYYCQQYWYWMYTFGQGTKVEIKR
# B22: CT03b (antibody, V domains shown)
# VH: B21 VH
# VL: B21 VL with F30L, T34D, R35G, K36N, N37T, A57L, T59Y, E61A, Y93F
# B23: CT03d (antibody, V domains shown)
# VH: B21 VH
# VL: B21 VL with F30L, R35G, N37T, Y93F
# B24: CT03c (antibody, V domains shown)
# VH: B21 VH
# VL: B21 VL with F30L, R33D, T34D, K36N, N37T, A57L, T59Y, E61A, Y93F
# B25: CT03a (antibody, V domains shown)
# VH: B21 VH
# VL: B21 VL with F30L, Y93F
# B26: CT03e (antibody, V domains shown)
# VH: B21 VH
# VL: B21 VL with F30L, T34D, R35G, Y93F
# Biological target: human recombinant integrin αvβ6 (αv extracellular domain-acidic leucine zipper-His×6 with β6 extracellular domain-basic leucine zipper) (human) (UniProt P06756)
# Sequence (P06756 other isoform, or with tags, fused parts or gaps, chain 1 of 2): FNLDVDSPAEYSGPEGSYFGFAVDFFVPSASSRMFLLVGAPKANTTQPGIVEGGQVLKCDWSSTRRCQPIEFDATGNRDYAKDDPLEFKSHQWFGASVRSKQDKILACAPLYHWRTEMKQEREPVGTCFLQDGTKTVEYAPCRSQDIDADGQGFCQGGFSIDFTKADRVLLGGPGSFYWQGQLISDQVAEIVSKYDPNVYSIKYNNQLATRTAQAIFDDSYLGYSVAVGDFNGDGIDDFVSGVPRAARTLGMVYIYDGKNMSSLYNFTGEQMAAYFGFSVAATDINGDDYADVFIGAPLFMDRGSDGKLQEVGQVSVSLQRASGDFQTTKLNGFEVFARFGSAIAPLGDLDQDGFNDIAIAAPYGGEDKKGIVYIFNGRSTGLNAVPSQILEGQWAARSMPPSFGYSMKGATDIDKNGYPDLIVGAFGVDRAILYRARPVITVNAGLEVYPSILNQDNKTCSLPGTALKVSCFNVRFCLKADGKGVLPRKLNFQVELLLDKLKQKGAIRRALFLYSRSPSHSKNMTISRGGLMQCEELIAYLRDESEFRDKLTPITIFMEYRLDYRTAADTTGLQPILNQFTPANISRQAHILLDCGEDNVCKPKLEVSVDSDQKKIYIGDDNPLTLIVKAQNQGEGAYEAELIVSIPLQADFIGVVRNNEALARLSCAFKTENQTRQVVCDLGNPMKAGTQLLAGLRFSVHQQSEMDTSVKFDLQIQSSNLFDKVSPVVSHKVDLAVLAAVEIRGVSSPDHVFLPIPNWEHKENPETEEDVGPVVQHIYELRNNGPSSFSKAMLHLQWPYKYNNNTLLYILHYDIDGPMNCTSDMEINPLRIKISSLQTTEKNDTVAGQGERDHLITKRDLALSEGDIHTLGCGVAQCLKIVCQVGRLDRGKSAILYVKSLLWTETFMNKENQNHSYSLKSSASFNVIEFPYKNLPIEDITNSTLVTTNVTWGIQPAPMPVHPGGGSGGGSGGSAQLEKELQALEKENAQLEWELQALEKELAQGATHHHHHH
# Sequence (chain, as listed by the source, chain 2 of 2): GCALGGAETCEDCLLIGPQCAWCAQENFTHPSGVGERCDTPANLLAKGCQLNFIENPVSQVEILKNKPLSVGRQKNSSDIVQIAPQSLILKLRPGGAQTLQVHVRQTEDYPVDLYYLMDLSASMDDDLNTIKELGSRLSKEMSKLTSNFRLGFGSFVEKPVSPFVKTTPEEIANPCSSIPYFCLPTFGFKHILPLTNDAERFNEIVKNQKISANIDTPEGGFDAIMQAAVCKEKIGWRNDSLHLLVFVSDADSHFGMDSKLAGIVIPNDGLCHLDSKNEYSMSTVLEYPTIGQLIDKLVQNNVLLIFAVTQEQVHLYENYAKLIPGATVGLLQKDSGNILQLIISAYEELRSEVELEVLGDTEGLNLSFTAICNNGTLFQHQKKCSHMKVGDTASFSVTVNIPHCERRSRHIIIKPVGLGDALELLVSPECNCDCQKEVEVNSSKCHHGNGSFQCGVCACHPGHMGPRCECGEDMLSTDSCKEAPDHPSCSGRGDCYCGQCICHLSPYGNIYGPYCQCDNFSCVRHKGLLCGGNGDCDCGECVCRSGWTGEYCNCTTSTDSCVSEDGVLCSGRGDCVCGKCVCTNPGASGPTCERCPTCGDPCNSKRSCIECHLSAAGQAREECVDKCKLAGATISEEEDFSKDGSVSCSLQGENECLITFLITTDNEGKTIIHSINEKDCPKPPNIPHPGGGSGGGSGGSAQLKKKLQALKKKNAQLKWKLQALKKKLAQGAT
# Assay: BLI (Octet), antibody captured on anti-human IgG Fc (AHC) biosensor, integrin αvβ6 3.1-100 nM as analyte, divalent cations
Kd [nM],koff [s⁻¹],kon [M⁻¹ s⁻¹],Binder
0.722,0.000153,212000,B1
1.52,0.000265,175000,B2
0.843,0.000182,216000,B3
0.952,0.000175,184000,B4
0.457,0.000128,279000,B5
12.1,0.00703,583000,B6

# Biological target: human recombinant integrin αvβ5 (αv extracellular domain-acidic leucine zipper-His×6 with β5 extracellular domain-basic leucine zipper) (human) (UniProt P06756)
# Sequence (P06756 other isoform, or with tags, fused parts or gaps, chain 1 of 2): as the sequence (P06756 other isoform, or with tags, fused parts or gaps, chain 1 of 2) above
# Sequence (chain, as listed by the source, chain 2 of 2): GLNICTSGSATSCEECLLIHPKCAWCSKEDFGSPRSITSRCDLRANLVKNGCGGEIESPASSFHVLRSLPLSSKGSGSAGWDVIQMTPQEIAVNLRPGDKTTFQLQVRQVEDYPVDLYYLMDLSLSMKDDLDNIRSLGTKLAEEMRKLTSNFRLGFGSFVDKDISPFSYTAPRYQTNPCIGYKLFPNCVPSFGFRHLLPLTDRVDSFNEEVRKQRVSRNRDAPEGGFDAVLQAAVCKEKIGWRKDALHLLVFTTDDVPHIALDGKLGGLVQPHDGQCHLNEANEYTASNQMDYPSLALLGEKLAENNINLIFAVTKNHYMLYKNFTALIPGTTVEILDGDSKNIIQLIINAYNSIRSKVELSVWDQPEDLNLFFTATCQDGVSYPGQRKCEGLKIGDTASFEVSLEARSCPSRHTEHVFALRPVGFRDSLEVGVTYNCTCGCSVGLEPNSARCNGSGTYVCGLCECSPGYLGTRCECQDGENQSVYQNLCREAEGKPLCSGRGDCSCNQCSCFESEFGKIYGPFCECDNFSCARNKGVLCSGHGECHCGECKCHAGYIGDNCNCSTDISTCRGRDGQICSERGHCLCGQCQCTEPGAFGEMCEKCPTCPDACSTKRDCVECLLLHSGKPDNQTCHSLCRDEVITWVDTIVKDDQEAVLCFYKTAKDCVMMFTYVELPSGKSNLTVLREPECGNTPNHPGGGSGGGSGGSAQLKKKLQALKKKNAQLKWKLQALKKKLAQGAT
# Assay: BLI (Octet), antibody on AHC biosensor, integrin αvβ5 as analyte
row,fold higher affinity than in4-Ras03 [fold],Binder
1,2,B7

# Biological target: human recombinant EpCAM antigen (extracellular domain, residues 1 to 265, fused with 6×His tag and Avi-tag) (human) (UniProt P16422)
# Sequence (P16422 24-265 limits assumed, form in doubt): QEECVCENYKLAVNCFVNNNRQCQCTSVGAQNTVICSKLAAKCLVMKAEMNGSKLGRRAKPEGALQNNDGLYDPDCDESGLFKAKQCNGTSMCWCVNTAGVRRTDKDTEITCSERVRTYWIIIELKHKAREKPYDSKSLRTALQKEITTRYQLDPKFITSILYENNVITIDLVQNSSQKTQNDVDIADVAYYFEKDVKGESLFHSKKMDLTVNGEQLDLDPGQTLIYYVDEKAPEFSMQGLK
# Assay: SPR (Biacore 2000), EpCAM on CM5 chip (about 211 RU), antibody 6.25-100 nM as analyte
Kd [nM],koff [s⁻¹],kon [M⁻¹ s⁻¹],Binder
3.04,0.00224,737000,B8
17.7,0.00117,66400,B9
0.185,0.00105,5.69e+06,B10
9.94,0.00421,424000,B11
0.313,0.00168,5.38e+06,B12
183,0.00205,11200,B13

# Biological target: human recombinant EpCAM antigen (extracellular domain, residues 1 to 265, fused with 6×His tag and Avi-tag) (human) (UniProt P16422)
# Assay: SPR (Biacore 2000), EpCAM on CM5 chip (about 367 RU), antibody 6.25-100 nM as analyte
Kd [nM],koff [s⁻¹],kon [M⁻¹ s⁻¹],Binder
12.4,0.00905,728000,B14
2.11,0.0036,1.7e+06,B15
1.86,,3.02e+06,B16
4.35,,1.36e+06,B17

# Biological target: human recombinant integrin αvβ5 (αv extracellular domain-acidic leucine zipper-His×6 with β5 extracellular domain-basic leucine zipper) (human) (UniProt P06756)
# Assay: BLI (Octet), antibody captured on anti-human IgG Fc (AHC) biosensor, integrin αvβ5 3.1-100 nM as analyte, divalent cations
Kd [nM],koff [s⁻¹],kon [M⁻¹ s⁻¹],Binder
7.01,0.000158,22500,B18
2.63,0.00012,45500,B19
4.88,0.000163,33300,B20
1.13,6.39e-05,56700,B7
2.06,0.000166,80600,B6

# Biological target: heparan sulfate proteoglycan (HSPG) expressed on HeLa cells
# Assay: cell-based or functional assay
row,"fluorescence intensity of antibody located in the cytoplasm (confocal microscopy, HeLa cells, 1 µM, 6 h) [%]",Binder
1,100,B21
2,12.4,B22
3,26.3,B23
4,31.8,B24
5,40.1,B25
6,19.6,B26

# Biological target: human recombinant integrin αvβ6 (αv extracellular domain-acidic leucine zipper-His×6 with β6 extracellular domain-basic leucine zipper) (human) (UniProt P06756)
# Assay: BLI (Octet), antibody on AHC biosensor, integrin αvβ6 as analyte
row,fold higher binding affinity than in4-Ras03 [fold],Binder
1,12,B3
